Results from patent EP4725955A1, “PEPTIDE TARGETING C-MET, PHARMACEUTICAL COMPOSITION COMPRISING SAID PEPTIDE AND USE THEREOF” (Nanjing Anji Biotechnology Co., Ltd., priority 2023, dated 2025).
Converted amounts (≈) assume the structure as drawn. Where a SMILES comes first, the peptide text is derived from it. Where no end group is shown, it is not given here. The star is where a group is joined. Paclitaxel(2'-O-succinyl) = CC(=O)O[C@H]1C(=O)[C@@]2(C)[C@H]([C@H](OC(=O)c3ccccc3)[C@]3(O)C[C@H](OC(=O)[C@H](OC(=O)CCC(=O)*)[C@@H](NC(=O)c4ccccc4)c4ccccc4)C(C)=C1C3(C)C)[C@]1(OC(C)=O)CO[C@@H]1C[C@@H]2O; FITC = O=C1OC2(c3ccc(O)cc3Oc3cc(O)ccc32)c2ccc(NC(=S)*)cc21; Acp = not defined here

How the values were obtained:
[1] = target: c-Met positive cell MKN-45 (Homo sapiens, UniProt P08581); test: Flow cytometry detection of binding of FITC-labelled peptide to c-Met positive cell MKN-45; type: cell-based; conditions: for affinity to c-Met positive cell MKN45 relative to CM7-1: comparison of EC50 with CM7-1, FITC-labelled peptides tested; for binding to c-Met positive cell MKN45, dose dependence: different peptide concentrations, flow cytometry; for binding affinity to c-Met positive cell MKN45 compared with P1-AI: alanine scanning, FITC-labelled peptides 10 µM to 0.625 µM, FIG. 12
Sequence of c-Met positive cell MKN-45 (P08581 25-1390): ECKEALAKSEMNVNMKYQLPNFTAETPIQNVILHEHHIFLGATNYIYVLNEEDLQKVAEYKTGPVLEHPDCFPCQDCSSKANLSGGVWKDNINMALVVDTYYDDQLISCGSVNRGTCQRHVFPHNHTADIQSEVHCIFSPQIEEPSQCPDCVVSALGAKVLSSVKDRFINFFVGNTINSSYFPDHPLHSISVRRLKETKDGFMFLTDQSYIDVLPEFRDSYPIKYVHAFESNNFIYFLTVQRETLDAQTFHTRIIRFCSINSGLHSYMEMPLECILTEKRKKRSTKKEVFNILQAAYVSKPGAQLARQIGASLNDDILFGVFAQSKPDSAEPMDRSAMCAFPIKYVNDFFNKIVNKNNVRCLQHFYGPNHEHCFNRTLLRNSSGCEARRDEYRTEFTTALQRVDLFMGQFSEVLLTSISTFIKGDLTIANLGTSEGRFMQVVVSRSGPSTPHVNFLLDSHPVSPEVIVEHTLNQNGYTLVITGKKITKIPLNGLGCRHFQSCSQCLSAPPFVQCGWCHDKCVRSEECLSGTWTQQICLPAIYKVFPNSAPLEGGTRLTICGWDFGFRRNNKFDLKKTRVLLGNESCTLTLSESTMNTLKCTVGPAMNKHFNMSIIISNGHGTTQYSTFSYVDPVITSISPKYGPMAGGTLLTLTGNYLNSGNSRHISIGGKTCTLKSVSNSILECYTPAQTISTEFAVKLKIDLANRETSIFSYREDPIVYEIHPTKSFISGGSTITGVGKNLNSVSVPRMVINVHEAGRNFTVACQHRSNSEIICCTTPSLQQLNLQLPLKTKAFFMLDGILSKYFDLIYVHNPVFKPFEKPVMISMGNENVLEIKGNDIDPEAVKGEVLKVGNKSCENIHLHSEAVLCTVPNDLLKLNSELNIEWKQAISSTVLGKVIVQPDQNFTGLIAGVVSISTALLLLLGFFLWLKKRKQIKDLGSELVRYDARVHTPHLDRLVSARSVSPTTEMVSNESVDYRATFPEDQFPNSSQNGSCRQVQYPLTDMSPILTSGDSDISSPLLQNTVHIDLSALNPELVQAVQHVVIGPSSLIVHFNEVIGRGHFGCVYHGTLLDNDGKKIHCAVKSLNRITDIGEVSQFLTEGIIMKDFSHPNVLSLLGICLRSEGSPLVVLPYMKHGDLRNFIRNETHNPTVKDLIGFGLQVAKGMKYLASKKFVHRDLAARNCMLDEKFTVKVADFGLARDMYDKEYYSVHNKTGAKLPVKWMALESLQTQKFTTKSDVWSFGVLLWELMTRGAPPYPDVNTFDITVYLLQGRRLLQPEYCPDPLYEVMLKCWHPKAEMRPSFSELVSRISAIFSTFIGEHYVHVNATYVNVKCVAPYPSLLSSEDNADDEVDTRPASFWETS
Experimental: MKN 45 cells cultured in a 1640 culture solution (Nanjing Senbeijia Biotechnology Co., Ltd.) were collected, and washed twice with pre-cooled PBS. 1 mL of 1% BSA solution was added into the washed cells, and then the above mixed system was placed on a rotary mixer (Lichen Technology Co., Ltd.) and incubated for 30 min at 4°C. Different concentrations of FITC-P1-AI, FITC-CM7-1, FITC-CM7-1.1, FITC-CM7-1.2, FITC-CM7-1.3, FITC-CM7-1.4, FITC-CM7-1.5 and FITC-CM7-1.6 peptide solutions were respectively added in the dark to obtain multiple groups, and then the mixtures were placed on the rotary mixer and incubated for 1 h at 4°C in the dark. After the incubation was completed, the mixed system of the cells was centrifuged for 5 min at 800 rpm, and then supernatant was discarded. The cells were washed twice with pre-cooled PBS, and the concentration of the cells was adjusted to 1×10^6 cells/mL using PBS. 3 parallel replicate wells were set up for cells in each group, with 0.5 mL prepared per sample; and a flow cytometer was used to detect the binding of the peptide to c-Met positive cell MKN-45, EC50 data and a binding curve were generated. […] Table 2 Binding affinity of peptide to MKN-45
MKN-45 cells cultured in a 1640 culture solution were collected, and washed twice with pre-cooled PBS 1 mL of 1% BSA solution was added into the washed cells, and then the above mixed system was placed on a rotary mixer and incubated for 30-60 min at 4°C. 10 µM of FITC-P1-AI peptide solution and FITC-CM7-1 were respectively added in the dark to form two groups, and the above mixed systems were placed on the rotary mixer and incubated for 1 h at 4°C in the dark. After the incubation was completed, the mixed system of the cells was centrifuged for 5 min at 800 rpm, and then supernatant was discarded. The cells were washed 1-2 times with pre-cooled PBS, and then the concentration of the washed cells was adjusted to 1×10^6 cells/mL by using PBS. 3 parallel replicate wells were set up for cells in each group, with 0.5 mL prepared per sample; and a flow cytometer was used to detect the binding of the peptide to c-Met positive cells.
The MKN-45 cells cultured in a 1640 culture solution were collected, and washed twice with pre-cooled PBS. […] After the incubation was completed, the mixed system of the cells was centrifuged for 5 min at 800 rpm, and then supernatant was discarded. The cells were washed 1-2 times with pre-cooled PBS, and then the concentration of the washed cells was adjusted to 1×10^6 cells/mL by using PBS. 3 parallel replicate wells were set up for cells in each group, with 0.5 mL prepared per sample; and a flow cytometer was used to detect the binding of the peptide to the c-Met positive cell MKN-45. […] Table 4 Sequences of Peptides

[2] = Solubility of drug and drug-peptide conjugate in water (supersaturated solution, HPLC standard curve); type: physicochemical
Experimental: The peak areas of the series standard solutions were detected via HPLC (mobile phase: 0.065% TFA water + 0.05% TFA; chromatographic column: YMC-TriartC18; wavelength: 220 nm), so as to construct a concentration-peak area standard curve, as shown in FIG. 13. In FIG. 13, the horizontal axis represents the concentration, and the longitudinal axis represents the peak area.
The peak area of the sample was detected via HPLC, and the solubility value of the sample in water was calculated by the concentration-peak area standard curve. Table 5 Solubility Value of Sample in Water

[3] = test system: human hepatic stellate cell LX-2; test: Specificity: flow cytometry binding of peptide to LX-2 cells that barely express c-Met; type: cell-based; conditions: concentration of up to 10 µM, cells barely expressing c-Met, FIG. 8
Experimental: Human hepatic stellate cells LX-2 cultured in a 1640 culture solution were collected, and washed twice with pre-cooled PBS. 1 mL of 1% BSA solution was added into the washed cells, and then the above mixed system were placed on a rotary mixer and incubated for 30 min at 4°C. 10 µM of FITC-P1-AI peptide solution and FITC-CM7-1 were respectively added in the dark to form two groups, and the above mixed systems were placed on the rotary mixer and incubated for 1 h at 4°C in the dark. After the incubation was completed, the mixed system of the cells was centrifuged for 5 min at 800 rpm, and then supernatant was discarded. The cells were washed twice with pre-cooled PBS, and the concentration of the cells was adjusted to 1×10^6 cells/mL using PBS. 3 parallel replicate wells were set up at concentrations of 1 µM, 5 µM and 10 µM for cells in each group, with 0.5 mL prepared per sample; and a flow cytometer was used to detect the binding of the peptide to LX-2 cells.

[4] = literature values; cited from earlier work
[5] = test system: MKN-45 subcutaneous xenograft tumor; test: Living imaging of tissue distribution in MKN-45 subcutaneous xenograft tumor mice; type: in vivo, nude mice; conditions: 5 mg/kg via tail vein, tumor about 400 mm^3, FIG. 11
Experimental: In MKN-45 subcutaneous xenograft tumor mice (nude mice were purchased from Changzhou Kavens Laboratory Animal Co., Ltd), 5X10^6 MKN45 cells were subcutaneously implanted into nude mice; and when the volume of the tumor was about 400 mm^3, 5 mg/kg Cy5-P1-AI was injected via a tail vein, and its tissue distribution was analyzed using a living imaging instrument. […] In the figure, a circle area is a tumor site.

[6] = Solubility detection of peptide in ultrapure water (visual); type: physicochemical
Experimental: 13.4 mg of CM7-1 and 15 mg of P1-AI were respectively weighed and dissolved using ultrapure (UP) water (prepared using Youpu Pure Water/Ultrapure Water Manufacturing System (UPR-II-10T)).

c-Met protein = c-Met protein (UniProt P08581 25-932, limits assumed); test: microscale thermophoresis (MST), FITC-peptide with titrated c-Met protein
Sequence of c-Met protein (P08581 25-932 limits assumed): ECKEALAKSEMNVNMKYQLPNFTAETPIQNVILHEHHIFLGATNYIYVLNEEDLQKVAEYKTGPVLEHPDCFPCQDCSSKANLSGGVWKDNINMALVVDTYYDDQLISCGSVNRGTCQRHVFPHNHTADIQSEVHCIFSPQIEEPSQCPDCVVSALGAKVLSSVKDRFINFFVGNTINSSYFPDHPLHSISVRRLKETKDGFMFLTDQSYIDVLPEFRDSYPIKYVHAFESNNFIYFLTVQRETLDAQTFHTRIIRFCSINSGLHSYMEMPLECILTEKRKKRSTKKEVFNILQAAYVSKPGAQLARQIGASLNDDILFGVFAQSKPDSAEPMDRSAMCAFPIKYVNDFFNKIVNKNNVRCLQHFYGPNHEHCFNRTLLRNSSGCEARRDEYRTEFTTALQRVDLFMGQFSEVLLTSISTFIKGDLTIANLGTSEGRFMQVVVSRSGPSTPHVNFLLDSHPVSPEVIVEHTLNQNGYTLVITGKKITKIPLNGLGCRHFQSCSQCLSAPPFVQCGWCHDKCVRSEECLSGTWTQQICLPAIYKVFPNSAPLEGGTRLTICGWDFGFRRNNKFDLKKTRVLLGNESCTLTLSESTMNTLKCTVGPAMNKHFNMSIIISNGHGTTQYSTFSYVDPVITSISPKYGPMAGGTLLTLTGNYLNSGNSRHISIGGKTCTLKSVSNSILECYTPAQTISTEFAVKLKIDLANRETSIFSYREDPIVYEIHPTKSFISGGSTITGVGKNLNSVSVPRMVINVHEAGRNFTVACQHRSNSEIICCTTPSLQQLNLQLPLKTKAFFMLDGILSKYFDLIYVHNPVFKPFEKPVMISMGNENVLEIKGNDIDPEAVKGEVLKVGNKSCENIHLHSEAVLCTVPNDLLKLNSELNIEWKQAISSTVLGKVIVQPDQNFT

[7] = target: T1, c-Met on c-Met positive human gastric cancer cell MKN-45 (human, UniProt P08581 25-1390); test: flow cytometry, FITC-peptide (0.625-10 µM) on MKN-45 cells
T1 construct: whole, on cells; also called hepatocyte growth factor receptor; HGFR
T1 sequence (P08581 25-1390): as the sequence (P08581 25-1390) above

[8] = target: T1, c-Met on c-Met positive human gastric …; test: flow cytometry, FITC-peptide on c-Met positive MKN-45 cells

DAIIANN [CM7-1.2]
affinity to c-Met positive cell MKN45 relative to CM7-1 [1]: significantly increased affinity | binding to c-Met positive cell MKN45, dose dependence [1]: dose-dependent

CC[C@@]1(O)C(=O)OCc2c1cc1n(c2=O)Cc2cc3ccccc3nc2-1 [CPT, camptothecin]
solubility at 15 min ([2]; thermodynamic from solid): 0.084 µg/mL (≈ 0.241 µM)

RAPYANS [P1-AI-2]
binding affinity to c-Met positive cell MKN45 compared with P1-AI [1]: reduced

ASPYANS [P1-AI-1]
binding affinity to c-Met positive cell MKN45 compared with P1-AI [1]: reduced

CC(=O)O[C@H]1C(=O)[C@@]2(C)[C@H]([C@H](OC(=O)c3ccccc3)[C@]3(O)C[C@H](OC(=O)[C@H](OC(=O)CCC(=O)N[C@@H](CCCNC(=N)N)C(=O)N[C@@H](CO)C(=O)N4CCC[C@H]4C(=O)N[C@@H](Cc4ccc(O)cc4)C(=O)N[C@@H](C)C(=O)N[C@@H](CC(N)=O)C(=O)N[C@@H](CO)C(=O)O)[C@@H](NC(=O)c4ccccc4)c4ccccc4)C(C)=C1C3(C)C)[C@]1(OC(C)=O)CO[C@@H]1C[C@@H]2O [PTX-P1-AI] ({Paclitaxel(2'-O-succinyl)}-RSPYANS-OH; N-terminus assumed)
Solubility increasing fold of drug-peptide conjugate compared with drug [2]: 46.33 fold

FITC-RSPYANS (not fully specified; FITC label) [FITC-P1-AI]
binding to LX-2 cells [3]: barely binds

DQAIANN [CM7-1.3]
affinity to c-Met positive cell MKN45 relative to CM7-1 [1]: significantly increased affinity | binding to c-Met positive cell MKN45, dose dependence [1]: dose-dependent

RSPAANS [P1-AI-4]
binding affinity to c-Met positive cell MKN45 compared with P1-AI [1]: increased binding affinity | binding affinity to c-Met compared with CM7-1 ([1]; conclusion of Example 9): superior

CCc1c2c(nc3ccc(OCC(=O)N4CCCCC4)cc13)-c1cc3c(c(=O)n1C2)COC(=O)[C@]3(O)CC [7-ethyl-10-[2-oxo-2-(piperidinyl)ethoxy]camptothecin]
solubility in water [4]: about 6.22 µg/mL

DQIIANA [CM7-1.6]
affinity to c-Met positive cell MKN45 relative to CM7-1 [1]: increased affinity

Cy5-RSPYANS [Cy5-P1-AI]
tissue distribution by living imaging [5]: enriched in cancer sites highly expressing c-Met

CC(=O)O[C@@]12CO[C@@H]1C[C@H](O)[C@@]1(C)C(=O)[C@H](O)C3=C(C)[C@@H](OC(=O)[C@H](OC(=O)CCC(=O)N[C@@H](CCCNC(=N)N)C(=O)N[C@@H](CO)C(=O)N4CCC[C@H]4C(=O)N[C@@H](Cc4ccc(O)cc4)C(=O)N[C@@H](C)C(=O)N[C@@H](CC(N)=O)C(=O)N[C@@H](CO)C(=O)O)[C@@H](NC(=O)OC(C)(C)C)c4ccccc4)C[C@@](O)([C@@H](OC(=O)c4ccccc4)[C@H]21)C3(C)C [DOC-P1-AI]
Solubility increasing fold of drug-peptide conjugate compared with drug [2]: 1.62×10^5 fold

DQIIANN [CM7-1, DQIIANN, reference compound]
state in water ([6]; concentration 6 mM): completely cloudy state

RSPYANS [P1-AI, RSPYANS]
state in water ([6]; concentration 19 mM): clear solution

DQIAANN [CM7-1.4]
affinity to c-Met positive cell MKN45 relative to CM7-1 [1]: increased affinity

RSAYANS [P1-AI-3]
binding affinity to c-Met positive cell MKN45 compared with P1-AI [1]: reduced

B1: FITC-P1-AI (FITC-RSPYANS) (peptide)
peptide: {FITC-Acp}-RSPYANS
modifications: reading uncertain
notes: Synthetic 7-mer made by solid-phase synthesis; Molecular weight 1296.36
Kd (c-Met protein): 41.1 nM | fold increase of affinity against CM7-1 (c-Met protein): 30.9 fold

B2: FITC-P1-AI-6 (FITC-RSPYAAS) (peptide)
peptide: {FITC}-RSPYAAS
notes: Alanine variant of P1-AI at position 6; also called P1-Al-6
binding result [7]: binds

B3: FITC-P1-AI-2 (FITC-RAPYANS) (peptide)
peptide: {FITC}-RAPYANS
notes: Alanine variant of P1-AI at position 2
binding result [7]: binds

B4: FITC-P1-AI-3 (FITC-RSAYANS) (peptide)
peptide: {FITC}-RSAYANS
notes: Alanine variant of P1-AI at position 3
binding result [7]: binds

B5: FITC-P1-AI-1 (FITC-ASPYANS) (peptide)
peptide: {FITC}-ASPYANS
notes: Alanine variant of P1-AI at position 1
binding result [7]: binds

B6: FITC-P1-AI-4 (FITC-RSPAANS) (peptide)
peptide: {FITC}-RSPAANS
notes: Alanine variant of P1-AI at position 4
binding result [7]: binds

B7: FITC-CM7-1 (FITC-DQIIANN) (peptide)
peptide: {FITC}-DQIIANN
notes: tested as the FITC-labelled form; Molecular weight 1289.36
EC50 [8]: 9500 nM | Kd (c-Met protein): 1270 nM

B8: FITC-CM7-1.2 (FITC-DAIIANN) (peptide)
peptide: {FITC}-DAIIANN
notes: Alanine variant of CM7-1 at position 2
EC50 [8]: 1880 nM

B9: FITC-CM7-1.5 (FITC-DQIIAAN) (peptide)
peptide: {FITC}-DQIIAAN
notes: Alanine variant of CM7-1 at position 6
EC50 [8]: 15200 nM

B10: FITC-CM7-1.4 (FITC-DQIAANN) (peptide)
peptide: {FITC}-DQIAANN
notes: Alanine variant of CM7-1 at position 4
EC50 [8]: 5370 nM

B11: FITC-CM7-1.6 (FITC-DQIIANA) (peptide)
peptide: {FITC}-DQIIANA
notes: Alanine variant of CM7-1 at position 7
EC50 [8]: 5050 nM

B12: FITC-CM7-1.3 (FITC-DQAIANN) (peptide)
peptide: {FITC}-DQAIANN
notes: Alanine variant of CM7-1 at position 3
EC50 [8]: 45.6 nM

B13: FITC-CM7-1.1 (FITC-AQIIANN) (peptide)
peptide: {FITC}-AQIIANN
notes: Alanine variant of CM7-1 at position 1
EC50 [8]: 2070 nM
